# In the supplement of paper PMC10126150:
# ± gives the standard deviation of the averaged measurements.
# System: ATP
# Assay: switch fluorescence ratio, 500 uM ATP over buffer (Cy3 cluster intensity, sum of 5 cycles each) (fold (ratio)); higher = stronger signal-on switching upon ATP binding; sequences stand for … in TCGTCGGCAGCGTCAGATGTGTATAAGAGACAGTTTTTTTTTTTTTTTTTTTTTTTTT…TC
# Conditions: aptamer strand: ATP DNA aptamer (quencher-CACCTGGGGGAGTATTGCGGAGGAAGG + anchor), 100 nM annealed; ATP concentration: 500 uM
# Summary of the method: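 After annealing to 100 nM quencher-labelled ATP aptamer, Cy3-labelled switching-strand clusters on a modified Illumina MiSeq flow-cell were imaged in selection buffer. A second image followed after 15 min with 500 uM ATP at 22 °C, and five such buffer/ATP cycles were done, each separated by NaOH stripping and re-annealing. The fluorescence ratio, averaged per switch-domain sequence, is summed target-cycle over summed buffer-cycle Cy3 intensity per cluster, with clusters outside 100-1000 RFU excluded.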
# 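Note: ATP exposure 15 min at 22 °C before imaging.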
row,Sequence,switch fluorescence ratio
1,TGGTTGTTTT,0.99 ± 0.018
2,CCCGTATGTT,1.03 ± 0.018
3,GGGTGCCGGT,1.01 ± 0.024
4,AGGGTCGCCT,1 ± 0.04
5,TTTTTTGGTG,1.02 ± 0.036
6,TTTTGAAAAA,1 ± 0.061
7,AATGCACAGA,1.05 ± 0.045
8,CGGGGGAGAC,0.971 ± 0.019
9,TGAAATGTTT,0.999 ± 0.031
10,AGGTGTTAAA,0.9941 ± 0.0033
11,GGGGGGGGAC,1.02 ± 0.071
12,AGTTAATTTC,0.989 ± 0.03
13,GGTATTATGG,1 ± 0.029
14,CGGTTCCCTA,0.978 ± 0.033
15,TCCCTTTGGC,1.01 ± 0.04
16,TGGGTAAGGG,1.01 ± 0.03
17,ACGTGGGGAG,1.08 ± 0.022
18,GACGGTAGTA,1.02 ± 0.017
19,GTTGGAATGA,1 ± 0.037
20,GGTGACGATT,0.9712 ± 0.0065
21,CAGGTGGGGG,1.01 ± 0.033
22,GATTATAGAT,1 ± 0.015
23,GAGGGACTGG,0.988 ± 0.084

row,Sequence,switch fluorescence ratio
1,ATAGAAGGGG,1.08 ± 0.14
2,GGTCCTGCGG,1.01 ± 0.087
3,ATATTTATAG,0.9944 ± 0.0071
4,AGGAGTATTA,0.983 ± 0.018
5,TGCGGGGGTC,1.04 ± 0.088
6,AAAATGGGGC,1 ± 0.037
7,CACTGAAGTT,1.026 ± 0.00036
8,GGGGGCGCAT,0.96 ± 0.066
9,GGGGGGTCGT,1 ± 0.05
10,AGGTAATCTT,0.979 ± 0.016
11,TGTTATTCAT,0.985 ± 0.041
12,GGGATCGTAA,0.987 ± 0.016
13,CATGACCTTT,1.04 ± 0.016
14,TAATCGGGAA,1 ± 0.017
15,GAGGGGTACT,1.025 ± 0.0042
16,GGTATTATAT,0.98 ± 0.038
17,TTCGTGCGGC,1.06 ± 0.042
18,CGGCATGCGG,1.022 ± 0.0035
19,AGAATGTGGG,0.996 ± 0.034
20,TCCAAAAACG,1.15 ± 0.21
21,GGTGCTGTGT,1.01 ± 0.039
22,ATTTAGGCGT,1 ± 0.039
23,CTCAACGTTC,1.088 ± 0.006

row,Sequence,switch fluorescence ratio
1,CTCATATTGT,1.006 ± 0.0076
2,GCAAGATTTC,1.04 ± 0.013
3,GGTCTATCGT,1 ± 0.039
4,GACTTGAATG,0.976 ± 0.011
5,AATCAATTAA,1.001 ± 0.0016
6,GCAGTCTGTG,0.98 ± 0.03
7,TTGGGCAGTA,0.978 ± 0.057
8,GTGGGGATGT,1.01 ± 0.024
9,CTAGGATGTA,0.986 ± 0.015
10,GGATTGGGGT,0.986 ± 0.04
11,GTTGGAGAGG,0.974 ± 0.087
12,GCAAAGTCTG,0.984 ± 0.046
13,ATGGATGGTG,0.96 ± 0.029
14,TAGTCTAGGT,1.02 ± 0.025
15,TGGGGCGCTT,1 ± 0.033
16,GGGGCCGTTG,0.949 ± 0.012
17,GGTTTAAGAA,1.02 ± 0.023
18,AGATTGTGCT,0.975 ± 0.046
19,TATTAACGAG,0.995 ± 0.032
20,GTTGACAGG,1.025 ± 0.0066
21,CGTGGTAGGG,0.992 ± 0.035
22,GGGTGGGGCA,1.01 ± 0.045
23,CTATTTTGGG,0.993 ± 0.026

row,Sequence,switch fluorescence ratio
1,TGGGGTAGGC,1.02 ± 0.034
2,TTGATTGTGG,1.03 ± 0.059
3,TGCGGGTTTC,1.04 ± 0.017
4,GGTGCAATGA,1.956 ± 0.0021
5,AGAACCTGGG,0.981 ± 0.055
6,GAAATCGGAT,0.972 ± 0.016
7,GGTGCAGGAG,0.999 ± 0.035
8,ATTTTTGTGA,0.98 ± 0.013
9,GTATTCGCAA,4.73 ± 0.9
10,CTTCTGTCGT,1.034 ± 0.0018
11,GGTTCTGTGG,1.03 ± 0.0094
12,GTTAACGTGG,0.99 ± 0.019
13,TGTTTCTACG,1 ± 0.056
14,TGGATTCTCT,0.997 ± 0.017
15,TGGGGCTATA,0.995 ± 0.037
16,TTTTGTGTTG,0.996 ± 0.013
17,AGTTGGGGGG,0.986 ± 0.01
18,TTACGTTTGG,1.02 ± 0.025
19,AGTTGAAGTT,1.02 ± 0.039
20,CATTATTATT,0.9975 ± 0.0058
21,AAGTGGCCGT,1.01 ± 0.041
22,TCAACCTTTT,1.04 ± 0.052
23,CTTATAGGTG,1.14 ± 0.059

row,Sequence,switch fluorescence ratio
1,ATTTGAGAGC,0.987 ± 0.017
2,AAGTTTGAGT,0.982 ± 0.022
3,AGTTATGTTA,1 ± 0.022
4,CTGTTTATTT,1.36 ± 0.54
5,AAAATGGCCA,1.02 ± 0.083
6,ATCAGTAAAA,1.01 ± 0.035
7,TACCTATGTT,0.979 ± 0.011
8,AGCATAGCAT,1.01 ± 0.019
9,CTCCATATTA,1.057 ± 0.0068
10,TAGTACTGTG,0.998 ± 0.017
11,CCGCCTTGTT,1.11 ± 0.044
12,ATGGGGTGCT,0.986 ± 0.035
13,TTAGTTACGA,1.04 ± 0.014
14,TTCAAGGGTG,1.11 ± 0.024
15,TGGGACTATT,1.01 ± 0.076
16,ACCTAATTAG,1.06 ± 0.073
17,GTATGTAGTA,0.985 ± 0.0098
18,TGAGATACAT,1.13 ± 0.1
19,AGAGAGATCC,1.02 ± 0.058
20,AGGAGCGTCG,1.01 ± 0.013
21,TTGTCTAATT,1.007 ± 0.0081
22,CGTTATATTC,1.08 ± 0.031
23,AATGGGCAGT,0.989 ± 0.029

row,Sequence,switch fluorescence ratio
1,CCGGTGCTCG,1.04 ± 0.047
2,TAAGGGGATG,0.99 ± 0.011
3,TCGTCAACGG,1.01 ± 0.023
4,AAAAGGTCAG,1.01 ± 0.021
5,CGGCGGGTGG,1.02 ± 0.041
6,CGGTTAGGTG,1.06 ± 0.021
7,CTTACAGGTT,0.99 ± 0.036
8,GGGGCTTATT,0.975 ± 0.029
9,GCTGGATTGG,0.965 ± 0.016
10,AAAATGCGGT,0.996 ± 0.015
11,ACGGGTGCGT,1.017 ± 0.0027
12,TATTCCTCTG,2.03 ± 0.26
13,GAAGGGCGCG,1.029 ± 0.0034
14,TGCCATTGTT,0.942 ± 0.01
15,CTTGTCAAGT,0.984 ± 0.071
16,GTGAAAGCGT,0.961 ± 0.016
17,TTCAGTTGCA,1.01 ± 0.024
18,TAGGGTGCGT,1 ± 0.027
19,TCCAGGGCTT,1.06 ± 0.013
20,GGTGATAGTG,0.983 ± 0.024
21,TTACATATAG,1.04 ± 0.015
22,GGGACAGAGG,0.988 ± 0.0047
23,GGAATGTGTT,0.972 ± 0.013

row,Sequence,switch fluorescence ratio
1,CTCGTATTTA,0.976 ± 0.021
2,CGAGTAAACG,1.02 ± 0.017
3,AGGATGACAG,0.998 ± 0.04
4,AATCGTTTTT,1.02 ± 0.12
5,TTGGGTTCTC,0.983 ± 0.037
6,TTGGTGGTGG,1.01 ± 0.053
7,GGAGGAAATT,1.01 ± 0.082
8,AGGGCTGCAT,0.9874 ± 0.0035
9,CAGGACCCGG,1.071 ± 0.0084
10,TTGAATACAC,1.11 ± 0.17
11,CACTATAGCG,1.042 ± 0.0098
12,GGTGTGCGGA,1.02 ± 0.024
13,GGGTTCAGAG,1 ± 0.042
14,AGAAAAATGC,1.04 ± 0.088
15,AGTTGAATGT,0.9647 ± 0.0063
16,CTGTAAATTT,0.991 ± 0.03
17,TTTGGGAGGA,1.02 ± 0.047
18,TCGGCAGTGG,1.03 ± 0.027
19,AAGAGTTTTT,0.981 ± 0.033
